The target in the assay is Nucleosomes (Nuc207) with 30 bp linker DNA at both ends. Nature of the assay: EM 3D reconstruction of the assembled complex; ~30 μg/ml actin/Arp module with a 10-fold molar excess of Nuc207, 2 h at 4°C, 20 mM HEPES pH 8.0, 40 mM KOAc, 5 mM MgCl2, no ATP; two binding states.

Our source for the stoichiometry N values is paper PMC6548343.

As a reminder, the stoichiometry N is the number of molecules, sites or subunits per partner or assembly. In the case of “INO80 N-terminal subcomplex (N.com) (from UniProt P53115 356-691; P60010 1-375; P80428 1-489; Q12386 1-881; P35189 1-244; Q08561 1-116)”, the stoichiometry N amounted to 1.
